Measured values as given in the supplement of paper PMC9170038.

What was measured:
MS2 coat protein [1] = test: apparent KD of MS2 coat protein; higher = weaker reporter binding; conditions: Eterna round: R101
Experimental: (§1)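 RNA-MaP: designed FMN/MS2 RNA switches (84 nt design region) are transcribed on-chip within common flanks and titrated with SNAP-549-labelled MS2 coat protein (about 1-3000 nM) in 100 mM Tris pH 7.5, 80 mM KCl, 4 mM MgCl2, without or with 200 uM FMN. Median apparent KD per design; activation ratio = KD,OFF / KD,ON.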

MS2 coat protein [2] = test: apparent KD of MS2 coat protein; designed switch direction (-1 OFF switch, 1 ON switch): -1; higher = weaker reporter binding; conditions: Eterna round: R98
Experimental: as §1

MS2 coat protein [3] = test: apparent KD of MS2 coat protein; designed switch direction (-1 OFF switch, 1 ON switch): 1; higher = weaker reporter binding; conditions: Eterna round: R98
Experimental: as §1

AUAUAUAUUUAGAAGGACAUGAGGAUCACCCAUGUCGCCGGGCCCGGGAAACCGGGCCCGGCCAUGUAGGAUAUAGAUAUAUAU [#This is a good prank 13] (puzzle (switch architecture): Inverted Exclusion NG 2)
apparent KD of MS2 coat protein (MS2 coat protein [1]; input ligand: FMN 200 uM): 0.00905 µM | apparent KD of MS2 coat protein (MS2 coat protein [1]; input ligand: none): 0.00641 µM

CGAAGUCCGUAGAAGGGUGACAUGAGGAUCACCCAUGUGCGAGCCGAUGGAGUCAGCGGCUCGCCACAGGAUAUACGGAGCACG [Isdiesrama] (puzzle (switch architecture): Inverted Same State NG 2)
apparent KD of MS2 coat protein (MS2 coat protein [1]; input ligand: FMN 200 uM): 0.0223 µM | apparent KD of MS2 coat protein (MS2 coat protein [1]; input ligand: none): 0.18 µM

AUGACAGGCAGAGCGCAACGGCGUACAUGAGGAUCACCCAUGUAGGAUAUACUACACAAAGUGUAGUAGAAGGACAUGCGACGG [Ex NG2 #89]
apparent KD of MS2 coat protein (MS2 coat protein [2]; input ligand: FMN 200 uM): 0.069 µM | apparent KD of MS2 coat protein (MS2 coat protein [2]; input ligand: none): 0.0358 µM

AAUAAUUCUUAAGGAUAUGACUCCGAAACGGAGUCAGAAGGUGAGGAUCACCCACCUAGCUCAGCGUCGAAAGACGCUGAGCAA [#SharedSequence ExNG1 - 31] (puzzle (switch architecture): Exclusion NG 1)
apparent KD of MS2 coat protein (MS2 coat protein [1]; input ligand: FMN 200 uM): 0.0127 µM | apparent KD of MS2 coat protein (MS2 coat protein [1]; input ligand: none): 0.0105 µM

CCAUAAAAGAUCCAUUUUUACAACAUGAGGAUCACCCAUGUGCAGGAUAUCGUGAAAGUUAAAUACGAGAAGGGCAAGAACUGC [JR_ExcNG3_Sub050]
apparent KD of MS2 coat protein (MS2 coat protein [2]; input ligand: FMN 200 uM): 0.104 µM | apparent KD of MS2 coat protein (MS2 coat protein [2]; input ligand: none): 0.105 µM

CGAUAUAUGAAGGGCAAACGCCCACAUGAGGAUCACCCAUGUAGAAGGCGAUCCGCAACGCGGAUCGAGGAUAUAUAGUAUACA [#my 15th design] (puzzle (switch architecture): Inverted Exclusion NG 3)
apparent KD of MS2 coat protein (MS2 coat protein [1]; input ligand: FMN 200 uM): 0.0106 µM | apparent KD of MS2 coat protein (MS2 coat protein [1]; input ligand: none): 0.0112 µM

GGGUACAUCGGAGGAUAUCAUGUAUAUACAUGAGGAUCACCCAUGUCGAUGGAGACAUCGGAGAUUGAGAAGGCCGAUGUACCG (puzzle (switch architecture): Same State NG 2)
apparent KD of MS2 coat protein (MS2 coat protein [1]; input ligand: FMN 200 uM): 0.0118 µM | apparent KD of MS2 coat protein (MS2 coat protein [1]; input ligand: none): 0.382 µM

AUGGAUAUCACAGGAUAUGAUAUGGAUACCAUAUCAGAAGGGUGACCCAUCCUAUGUAAAUACAUGAGGAUCACCCAUGUGUCC [Sara'sguidence+#HughScoreProbStacks#11] (puzzle (switch architecture): Same State NG 1)
apparent KD of MS2 coat protein (MS2 coat protein [1]; input ligand: FMN 200 uM): 0.34 µM | apparent KD of MS2 coat protein (MS2 coat protein [1]; input ligand: none): 0.64 µM

UAUUAUAUAUAGAAGGACAUGAGGAUCACCCAUGUCGCCGGGCCCGGGAAACCGGGCCCGGCCAUGUAGGAUAUAUAUAUGGUA [#This is a good prank 8] (puzzle (switch architecture): Inverted Exclusion NG 2)
apparent KD of MS2 coat protein (MS2 coat protein [1]; input ligand: FMN 200 uM): 0.0062 µM | apparent KD of MS2 coat protein (MS2 coat protein [1]; input ligand: none): 0.00638 µM

GCAGCUAAUGCAGGAUAUCAGCACGUGUAGUGCUGAGAAGGGCACAUGAGGAUCACCCAUGUGAUCAAUUAAUGUUAAUGCUGC [ExNG1 1 #C-Saturation] (puzzle (switch architecture): Exclusion NG 1)
apparent KD of MS2 coat protein (MS2 coat protein [1]; input ligand: FMN 200 uM): 0.0152 µM | apparent KD of MS2 coat protein (MS2 coat protein [1]; input ligand: none): 0.00682 µM

AUGACAGGCAGAGCGCAACGGCGUACAUGAGGAUCACCCAUGUAGGAUAUACUACACAAAGUGUAGUAGAAGGACAUGCGACGC [Ex NG2 #87]
apparent KD of MS2 coat protein (MS2 coat protein [2]; input ligand: FMN 200 uM): 0.0344 µM | apparent KD of MS2 coat protein (MS2 coat protein [2]; input ligand: none): 0.0232 µM

GGAGACCUUACAGGAUAUGCUGGACUUUGUCCAGCAGAAGGGUGAAAACAUGAGGAUCACCCAUGUAUGGUCUCCAAAUUUAAU [jl-ssng1-3.02 #GU_VS_GC_SWITCHING] (puzzle (switch architecture): Same State NG 1)
apparent KD of MS2 coat protein (MS2 coat protein [1]; input ligand: FMN 200 uM): 0.0212 µM | apparent KD of MS2 coat protein (MS2 coat protein [1]; input ligand: none): 0.0191 µM

AGGACAGGCAGAGCGCAACGGCGUACAUGAGGAUCACCCAUGUAGGAUAUACUACACAAAGUGUAGUAGAAGGACAUGCGACGC [Ex NG2 #88]
apparent KD of MS2 coat protein (MS2 coat protein [2]; input ligand: FMN 200 uM): 0.0456 µM | apparent KD of MS2 coat protein (MS2 coat protein [2]; input ligand: none): 0.0161 µM

CGCUAUAACAUGAGGAUCACCCAUGUAUACAUGGAAUUGACGUAGGAUAUGCAGUUGAUUAUAGUGCAGAAGGACGGUAUAGCG [JR #DistanceFar #Hairpin #Noisy #NP SSNG3 Sub069] (puzzle (switch architecture): Same State NG 3)
apparent KD of MS2 coat protein (MS2 coat protein [1]; input ligand: FMN 200 uM): 0.0373 µM | apparent KD of MS2 coat protein (MS2 coat protein [1]; input ligand: none): 0.101 µM

AUCAGCUCGUCAGGAUAUACGUCACUGCUUCGGCAGUGUGGUAAGAUCACAUGAGGAUCACCCAUGUAGAAGGGACGAGCUGAU [#EX_NG2_M81 #GC_VS_GU_SWITCHING] (puzzle (switch architecture): Exclusion NG 2)
apparent KD of MS2 coat protein (MS2 coat protein [1]; input ligand: FMN 200 uM): 0.258 µM | apparent KD of MS2 coat protein (MS2 coat protein [1]; input ligand: none): 0.0134 µM

UAUAUAUAGGCAGGAUAUACAUGUAUAUAUAAUUUUUUAUAUAUUAUUACAUGAGGAUCACCCAUGUAGAAGGGCCUUAUUAUA [LRO039_Exclusion NG 2]
apparent KD of MS2 coat protein (MS2 coat protein [2]; input ligand: FMN 200 uM): 0.0628 µM | apparent KD of MS2 coat protein (MS2 coat protein [2]; input ligand: none): 0.0469 µM

UGUUGUUACGCAGGAUAUUGCCAACAGGCAGUAGGAUAUCCGAAAGGAGAAGGAUCGCCAACAGGCGAGAAGGGCGGGUUAACA [pwkr exNG2 2xF7 2FMN.10.2]
apparent KD of MS2 coat protein (MS2 coat protein [2]; input ligand: FMN 200 uM): 0.194 µM | apparent KD of MS2 coat protein (MS2 coat protein [2]; input ligand: none): 0.706 µM

GGAUCCAACACAGGAUAUGCUGGACUUUGUCCAGCAGAAGGGUGAAACAUGAGGAUCACCCAUGUAUGGAUCCAUAUAUUUAAU [Denovo 32]
apparent KD of MS2 coat protein (MS2 coat protein [3]; input ligand: FMN 200 uM): 0.245 µM | apparent KD of MS2 coat protein (MS2 coat protein [3]; input ligand: none): 0.629 µM

AGCGGUAGGACAGGAUAUGGUGACUUCAAGCGGCCAGAAGGGUCCCGACAUGAGGAUCACCCAUGUCUUCCAGGCAGGGAGCGC [Teanisradi]
apparent KD of MS2 coat protein (MS2 coat protein [3]; input ligand: FMN 200 uM): 0.71 µM | apparent KD of MS2 coat protein (MS2 coat protein [3]; input ligand: none): 0.234 µM

AAAAAUUCUUAAGGAUAUCAGUGGCAAAGCCACUGAGAAGGUGAGGAUCACCCACCUACGUGACGCUGGAAACAGCGUCACGAA [#SharedSequence ExNG1 - 29] (puzzle (switch architecture): Exclusion NG 1)
apparent KD of MS2 coat protein (MS2 coat protein [1]; input ligand: FMN 200 uM): 0.0188 µM | apparent KD of MS2 coat protein (MS2 coat protein [1]; input ligand: none): 0.0166 µM

GGCUUAAACACAGGAUAUAGCCUUAGAGUGAGGCUAGAAGGGUGAAGUUCUCAUACAUGAGGAUCACCCAUGUCACGGAGGCUA [Atteedbian]
apparent KD of MS2 coat protein (MS2 coat protein [3]; input ligand: FMN 200 uM): 0.307 µM | apparent KD of MS2 coat protein (MS2 coat protein [3]; input ligand: none): 0.0371 µM

UAUAUAUAGGCAGGAUAUACAUGAAUAUAUAAUAUAAUAUAUAAUAUAACAUGAGGAUCACCCAUGUAGAAGGGCCAUAAUAUA [LRO031_Exclusion NG 2]
apparent KD of MS2 coat protein (MS2 coat protein [2]; input ligand: FMN 200 uM): 0.109 µM | apparent KD of MS2 coat protein (MS2 coat protein [2]; input ligand: none): 0.0486 µM

AGAAACUACGAGAAGGACAUGUGGUCCUUCAAAACCAUGAGGAUCACCCAUGUAGGAUAUCGUAGUUUCAGGAUCGUGAGAUCA [salish99_ISLExNG1_023 #HINGE] (puzzle (switch architecture): Inverted Small Loop Exclusion NG 1)
apparent KD of MS2 coat protein (MS2 coat protein [1]; input ligand: FMN 200 uM): 0.0121 µM | apparent KD of MS2 coat protein (MS2 coat protein [1]; input ligand: none): 0.268 µM

CCUUUAAAGAUCCAAAAUUACAACAUGAGGAUCACCCAUGUGCAGGAUAUCGUGCCAGUGAUGUACGAGAAGGGCAGACUCUGC [salish99_ExNG3_r2_015]
apparent KD of MS2 coat protein (MS2 coat protein [2]; input ligand: FMN 200 uM): 0.0952 µM | apparent KD of MS2 coat protein (MS2 coat protein [2]; input ligand: none): 0.105 µM

UAUUGCGCCGUAAAAUAACACAUGAGGAUCACCCAUGUGACACAGGAUAUAACCAGAUCAGAAAGUUAGAAGGGUGAAAACGGC [Edraed Mod 3 - Jieux - Same State NG3]
apparent KD of MS2 coat protein (MS2 coat protein [3]; input ligand: FMN 200 uM): 0.0204 µM | apparent KD of MS2 coat protein (MS2 coat protein [3]; input ligand: none): 0.0308 µM

CCAGAUGUGUGAGGAUAUAGAGUGGAAUACACUCUAGAAGGUAUGUGAAAACAUGAGGAUCACCCAUGUGAUUAAUCAUCUGGA [SameState #2 NG1]
apparent KD of MS2 coat protein (MS2 coat protein [3]; input ligand: FMN 200 uM): 0.0279 µM | apparent KD of MS2 coat protein (MS2 coat protein [3]; input ligand: none): 0.0244 µM
